Laboratory results reported in article doi:10.1101/2023.09.08.556779, “Molecular model of a bacterial flagellar motor in situ reveals a “parts-list” of protein adaptations to increase torque” (bioRxiv, 2024).

Legend:
[1] = biological target: PflB (C. jejuni 81–176 (endogenous in minicells)); assay: cryo-EM structure; in situ single particle analysis of C. jejuni ΔflhG ΔflaAB minicells, C17 symmetry; focused refinement of the periplasmic scaffold and first basal disk ring to 7.9 Å; AlphaFold models docked or flexibly fitted
[2] = biological target: PflC, recombinant (C. jejuni); assay: SEC + other: mass photometry; analytical SEC on ENrich SEC 650 in 1× PBS, calibrated with 15–600 kDa standards; mass photometry in PBS
[3] = biological target: the molecule itself; assay: as above
[4] = biological target: the molecule itself; assay: cryo-EM structure; in situ single particle analysis of C. jejuni ΔflhG ΔflaAB minicells, C17 symmetry; focused refinement of the periplasmic scaffold and first basal disk ring to 7.9 Å; AlphaFold models docked or flexibly fitted

Question: Which stoichiometry N [1] does the source give for “PflB (from UniProt A0A6F9L7Y3 1-820) (natural protein)” here?
Answer: 17

Question: Which stoichiometry N [2] does the source give for PflC, recombinant (natural protein) here?
Answer: 2

B1: PflCN (Δ236–349), recombinant (domain or fragment)
chain: GIERPKFEDFLAGYERNKASMLNYEGMPAFALSENLLAVLKQPNTKLNKYVKYDPFLNLYLVRTDFSLIPTPMGDEEKLTRNDWVGIWDPNKPYIGHIKYLAQNIDEKDQLDFNSKIGLLGTPCCEMMGIALNNSSFIGNRYLKHFMKYNDVYWGDIGVDFVVRENKIYVNNVRKNPQFLINDQVISVDGLPANDLRKLNEKILFADRGSTLYFQVLRDNSGGDGKFQFFIRLTK
Question: With B1 as the molecule, how does the “stoichiometry N” value [3] read?
Answer: 2

B2: FliL (natural protein)
chain: MDEELENEETKKKKGGSLVIIIVILLFVLLLSIMGVIAWLISSSSSDESEVKEAPKEEAKADKPKVSAPTQRGSDFANIGPMYPLDPFTLNLLSDSGSRYVKCTIELEQNSELLKPELDKKVPVIRDIIIRTLTAKTFEEVSTQKGKERLKDELVGKINEILTDGFIKNVYFTDFVVS
notes: FliL of Campylobacter jejuni 81–176; an arc of four in each asymmetric unit of the proximal disk; source: endogenous, C. jejuni 81–176 (minicells imaged in situ; lysate of formaldehyde-crosslinked cells)
Question: B2 was tested. Which “stoichiometry N” value [4] did it give?
Answer: 4
